Measurements from the nanobody polyreactivity screen of Harvey et al. (2022).

Assay: yeast display, Sf9 membrane polyspecificity reagent, FACS + sequencing; frameworks hold sequencing errors
Summary of the method: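 Using colony PCR, genes from sorted yeast display clones were amplified, then sequenced on MiSeq at 2 × 250 and filtered by CDR length. The clones had been stained with 10% biotinylated, detergent-solubilized Sf9 membrane reagent for 1 hour at 4 °C and sorted by FACS into low and high (top ~1%) gates on anti-HA and streptavidin fluorescence. Polyreactivity labels come from the gate of origin.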

| Sequence | polyreactivity (PSR sort gate) |
| --- | --- |
| QVQLVESGGGLVQAGGTLRLTCAASGSIFHWNTMGWYRHAPGKESELFATITQRGGSTYYADSVKARFTLSRDNAKNTVYLQMNSLKPEDTAVYYCAAAIYRASRRRTSYSYDYWGQGTQVTVSS | high polyreactivity |
| QVQLVESGGGLVQAGGTLSLSCAASGFIFYRTARGWSRQAPGKDRELVAGISRVGSTYYADSVKGRFTISRDNAKNTVYLQMNSLKPEDTAVDYCAARSGYFYGYGYWGQGTQVTVSS | high polyreactivity |
| QVQLVESGGGLVQAGRRLRLSCAASGSTFGYYAMGWYRQAPGKERELVAAITSGATTNYADSVKGRFTISRDNAKNTVYLQMNSLKPEDTAVYYCAAGFQTRTPLNEFDNWGQGTQVTVSS | low polyreactivity |
| QVQLVESGGGLVQAGRSLRISCAASGSIFVNNAMGWYRQAPGKERELVAAISLSGGSTYYADSVTGRFTISRDTAKNTVYLQMTSLKPEDTAVYYCATRRSHYGKYDYWGQGTQVTVSS | high polyreactivity |
| QVQLVESGGGLVQAGRSLRLICAASGFTSHVYAMGWYRQAPGKERELVAAISSGSSTYYADSVKGRFTISRDNAKNTVYLQRNSLKPEDTAVYYCATTHKTLRRYESWGQGTQVTVSS | low polyreactivity |
| QVQLVESGGGLVQAGRSLRLSCAASGFIFRRYAMGWYRQAPGKEREFVAAISSGDDTDYADSVKGRFTISRDNAKNTVYLQMNSLKPEDTAVYYCAADHRYSVKYYYWGQGTQVTVSS | low polyreactivity |
| QVQLVESGGGLVQAGRSLRLSCAASGFIFSGNVMGWYRQAPGKERELVAAITSSGGSTYYADSVKGRFTISRDNAKNTVYLQMNSLKPEDTAVYYCATRYGGRYYWGQGTQVTVSS | high polyreactivity |
| QVQLVESGGGLVQAGRSLRLSCAASGFTFGYYAMGWYRQPPGKERELVAAISWNGGRTYYADSVKGRFTISRDNAKNTVYLQMISLKPEDTAVYYCAADYRFYSPTQYTYDYWGQGTQVTVSS | high polyreactivity |
| QVQLVESGGGLVQAGRSLRLSCAASGFTFYYNAMGWYRQAPGKERELVAAISSGGSTYYADSVKGRFTISRDNAKNTVYLQMNSLKPEDTAVYYCAADSLYYRYDFWGQGTQVTVSS | low polyreactivity |
| QVQLVESGGGLVQAGRSLRLSCAASGITFGRNTMGWYRQAPGKERELVAAIDSGGNTYADSVKGRFTISRDNAKNTVYLQMNSLKPEDTAVYYCAVDGGEFSSYGYWGQGTQVSVSS | low polyreactivity |
| QVQLVESGGGLVQAGRSLRLSCAASGITFIYYAMGWYRQAPGKESELVAAISKSGGRTYYADSVKGRFTISRDNAKNTVYLQMNSLKPEDTAVYYCNKLVGDDTDLYDYWGQGTQVTVSS | high polyreactivity |
| QVQLVESGGGLVQAGRSLRLSCAASGRIFSYNAMGWYRQAPGKETELVAAITFSGGRTYYADSVKGRFTISRDNAKNTVYLQMNSLKPEDTAVYYCNAYWQGYGYDYWGQGTQVTVSS | low polyreactivity |
| QVQLVESGGGLVQAGRSLRLSCAASGSPLYSYAMGWYRQAPGKEREFVAAITSDDGSTYYADSVKGRFTISRDNAKNTVYLPLTSLKPEDTAVYYCATAASVEYNYWGQCTQVTVSS | low polyreactivity |
| QVQLVESGGGLVQAGRSLRLSCAASGSTFSWNTMGWYRPAPGIERELVAAINSGGSTYYADSVKGRFTISRDNAKNTVYLQMNSLKPEDTAFYYCAARTKYYGRFDYWGQGTQVTVCS | low polyreactivity |
| QVQLVESGGGLVQAGRSLRLSCAASGSTFWFYAMGWYRQAPGKERELVASINSGGSTYYADSVKGRFTISRDNAKNTVYLQMNSLKPEDTAVFYCAADAYSWWGRWERYPYTTMYYWGQGTQVTVSS | low polyreactivity |
| QVQLVESGGGLVQAGRSLRLSCAASGSTFYYYTMGWYRQEPGKERELVAAISFIGGSTYYADSVKGRFTISRDNAKNTVYLQMNSLKPEDTAVYYCAAESYPLSYSSATLSPSYEYWGQGTQVTVSS | low polyreactivity |

| Sequence | polyreactivity (PSR sort gate) |
| --- | --- |
| QVQLVESGGGLVQAGRSLRLSCAASGSTLQDNAMGWYRQAPGKERELVAAITLNGGSTYYADSVKRRFTISRDHAKNTVYLPMNSLKPEDTAVYYCAAEYLYVGYWFDYWGQGTQVTVSS | high polyreactivity |
| QVQLVESGGGLVQAGRSLRLSCAASGSTYSLDAMGWYRQAPGKERELVAAISWSDGSTYYADSVKGRFTISRDNAKNTVYLLMNSLKPEDTAVYYCGADSTVRPYVHSGDYWGQCTQVTVSS | low polyreactivity |
| QVQLVESGGGLVQAGRSLRLSCAASGYTFSRYTMGWYRQAPGKEWELVAAISSSGGSTYADSVKGRFTISRDNAKNTVYLQMTSLKPEDTGVYYCNRYYRRATKVGDWGQGTQVTVSS | high polyreactivity |
| QVQLVESGGGLVQAGRSLRLSCAASGYTIRYYAMGWYRQAPGKERELVAAITNRGGTYYADSVKGRFTISRDNAKNTVYLQLNSLKPEDNAVYYCAARYYWIDFKFGGPRDYWGQGTQVTVSS | high polyreactivity |
| QVQLVESGGGLVQAGRSLRLSCAASVYILYHNAMGWYRQAPGKERELVAAISYSGGRTYYADSVKGRFTISRDNAKNTVYLQMNSLKPEDTSVYYCNALSVWRTGRGQEFDYWGQGTQVTVSS | high polyreactivity |
| QVQLVESGGGLVQAGRSLRLSCASSGRIFWDYAMGWYRQAPGKERELVAAISWGSGRTYYADSVKGRFTISRDNAKNTVYLQMNSLKPADSAVDYCAARSSYRKMDYWGQGTQVTVSS | high polyreactivity |
| QVQLVESGGGLVQAGRSLRLSFADSGVIVTSNAMGWYRQAPGKEREFVADITSSDSTYYADSVKGRFTISRDNAKNTVYLQMNSLKPEDTAVYYCAARGTTVRAYGYGFGYWGQGTQVTVSS | low polyreactivity |
| QVQLVESGGGLVQAGRSLRLSSAASGNTFAGNAMGWYRQAPGKERELVAAISWSGTRTYYADSVKGRFTISRDNAKNTVYLQMNSLKPEDTAVYYCAKLSTNKEYYWGQGTQVTVSS | high polyreactivity |
| QVQLVESGGGLVQAGRSLRLTCAASGIIFIGNAMGWYRQATGKERELVAAISRRGGRTYYADSVKGRFTISRDNAKNTVYLQMFSLKPEDTAVYSCNAEITVNDDDYWGQGTQVTVSS | high polyreactivity |
| QVQLVESGGGLVQAGRSLRLTCAASGRIFRRYAMGWSRQAPGKERELVAAIRTSGGNTYYADSVKGRFTISRDNAKNTVYLQMNSLKPEDTAVYYCAAERGRLVAIASDYWGQGTQVTVSS | high polyreactivity |
| QVQLVESGGGLVQAGRSLRLTCAASGRTLGYNAMGWYRQPPGKERELVAAITYSGSRTYYADSVKGRFTISRDNAKNTVYLQMNSLKPEDTAVYYCAAGGYIAYYYYRFDYWGQGTQVTVSS | high polyreactivity |
| QVQLVESGGGLVQAGRSLRLTCAASGSTFSIYVMGWYRQAPGKERELVAAITWSDGIKYYADSVKGRFTISRDNAKNTVYLQMNSLKRDDTAVYYCRDSHPSYRPGTVRYDYLGQGTQVTVSS | low polyreactivity |
| QVQLVESGGGLVQAGSSLRLSCAASGRIFGYYAMGWYRQAPGKEREFVASITYSGGRTYYADSVKGRFTISRDNAKNTVYLQMNSLKPEDTAVYYCAKRQSFLGVSYDYWGQGTQVTVSS | high polyreactivity |
| QVQLVESGGGLVQAGVILRLSCAASGRIFIPYAMGWYIQAPGKERELVAAISYRGGSTYYADSVKGRFTISRDNAKNTVYLQMNSLKPEDTAVYYCANYDYWGQGTQVTVSS | high polyreactivity |
| QVQLVESGGGLVQAGVRLRLSCPASGITFEGYAMGWYRKAPGKERELVAAIRSSGTSTYYADSVKGRFTISRDNAKNTVYLQMNSLKPEDTAVYYCNRARSSSRYDYWGQGTKVTVSS | low polyreactivity |
| QVQLVESGGGLVQAGVSLRIRCAASGSIFFFNAMGWYRQAPGKEREFVAAITSSSGRTYYAYSVKVRFTISRDNAKNTVYLQMKSLKPEDTAVYYCAAQVPEDNETVDYWGQGTQVTVSS | low polyreactivity |
